Patent US20240093240, “GENE FUNCTION CONTROL BY NOVEL GUIDE NUCLEIC ACID MECHANISM” (NATIONAL UNIVERSITY CORPORATION KOBE UNIVERSITY, published 2024)

Columns and labels:
[1] = molecular target: T1, RsAgo (UniProt A4WYU7 A4WYU7:1-777); test: EMSA; 20 mM HEPES-KOH pH 7.5, 200 mM NaCl, 5 mM MgCl2, 25 C; settings: tag removed by Ulp1 protease
T1 sequence: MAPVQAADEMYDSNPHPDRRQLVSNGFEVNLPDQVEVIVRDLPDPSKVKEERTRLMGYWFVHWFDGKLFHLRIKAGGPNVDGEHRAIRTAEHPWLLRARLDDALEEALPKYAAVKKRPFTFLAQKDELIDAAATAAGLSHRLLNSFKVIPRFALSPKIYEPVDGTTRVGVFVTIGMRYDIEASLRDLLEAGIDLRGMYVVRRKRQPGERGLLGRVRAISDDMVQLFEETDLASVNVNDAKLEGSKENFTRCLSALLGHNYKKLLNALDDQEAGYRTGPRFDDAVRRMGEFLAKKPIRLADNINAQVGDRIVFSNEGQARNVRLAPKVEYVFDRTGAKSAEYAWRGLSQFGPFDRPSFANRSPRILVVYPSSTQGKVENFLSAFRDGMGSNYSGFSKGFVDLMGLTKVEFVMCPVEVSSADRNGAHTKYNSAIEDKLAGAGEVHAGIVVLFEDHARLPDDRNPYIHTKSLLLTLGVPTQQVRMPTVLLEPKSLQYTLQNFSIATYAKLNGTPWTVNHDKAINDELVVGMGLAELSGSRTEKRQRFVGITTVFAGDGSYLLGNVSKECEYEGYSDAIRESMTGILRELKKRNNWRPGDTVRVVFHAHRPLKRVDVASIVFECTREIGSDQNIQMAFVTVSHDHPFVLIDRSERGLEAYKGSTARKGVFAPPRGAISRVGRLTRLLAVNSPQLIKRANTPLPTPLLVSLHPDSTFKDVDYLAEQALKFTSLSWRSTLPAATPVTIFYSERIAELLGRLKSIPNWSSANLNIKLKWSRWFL
Procedure: (§1) The purified protein and synthetic oligonucleotide were mixed in the presence of the above reaction buffer and incubated for 20 minutes at 25° C. […] Detection was performed with Blue light LED.

[2] = molecular target: T1, RsAgo; test: EMSA; 500 nM RsAgo, 100 nM guide, 100-1000 nM target; 5 mM MgCl2, 25 C; settings: tag removed by Ulp1 protease; label: 3'-FAM; duplex with 18 nt mismatched bubble over the target site
Procedure: (§2) The purified protein (final 500 nM) and labelled guide RNA (final 100 nM) were mixed in the presence of the above reaction buffer and incubated for 15 minutes at 25° C. to form a complex. The target DNA was added (final 100 to 1000 nM) thereto.

[3] = molecular target: T1, RsAgo; test: EMSA; cannot bind fully double stranded DNA on its own; 5 mM MgCl2, 25 C; settings: tag removed by Ulp1 protease; label: 3'-FAM
Procedure: as §2

[4] = molecular target: T1, RsAgo; test: EMSA; high affinity to 5'-P ssRNA; 5 mM MgCl2, 200 mM NaCl, 25 C; settings: tag removed by Ulp1 protease; label: 3'-FAM
Procedure: as §1

B1: ssDNA 18 nt (ssDNA)
DNA: CGAGGTAGTAGGTTGTAA
Q: Does B1 bind ([1]; label: 5'-FAM)?
A: binds

B2: ssRNA 18 nt 5'-phosphate guide ; bubble target, 18 nt unpaired (ssRNA ; structured_DNA)
RNA: UUACAACCUACUACCUCG
DNA 1: GGATAACAATTCCCCTCTAGAAGTGGTTCGTGCTTCAACATGGGTCATCACCATCATC
DNA 2: GATGATGGTGATGACCCATGCGAGGTAGTAGGTTGTAACTAGAGGGGAATTGTTATCC
modifications: 5'-phosphate
Q: Does B2 bind [2]?
A: binds

B3: ssRNA 18 nt 5'-phosphate guide ; fully double stranded target (ssRNA ; dsDNA)
RNA: UUACAACCUACUACCUCG
DNA 1: GGATAACAATTCCCCTCTAGTTACAACCTACTACCTCGCATGGGTCATCACCATCATC
DNA 2: B2 DNA 2
modifications: 5'-phosphate
Q: Does B3 bind [3]?
A: no binding

B4: ssRNA 18 nt 5'-phosphate guide (ssRNA)
RNA: UUACAACCUACUACCUCG
modifications: 5'-phosphate
Q: Does B4 bind [4]?
A: binds

B5: ssRNA 18 nt 5'-OH (ssRNA)
RNA: UUACAACCUACUACCUCG
Q: Does B5 bind ([1]; label: 3'-FAM)?
A: binds
